In patent publication US7261890:

Legend:
[1] = biological target: recombinant canine IgE (canine); assay: OD of IgE binding ELISA divided by IgG expression relative to chimeric 15A2, COS supernatant
[2] = biological target: recombinant canine IgE (canine); assay: IgE binding ELISA of COS supernatant; second number is the relative expression level
[3] = biological target: recombinant canine IgE (canine); assay: IgE binding ELISA, COS supernatant on plate-coated recombinant canine IgE, anti-dog Fc-HRP
[4] = biological target: recombinant canine IgE (canine); assay: IgE binding ELISA of COS supernatant; in this cell the order is reversed (2.4 is the relative expression of Table 5, 0 the OD)

Row | Binder | Ratio IgE Binding/Expression [1] | OD of IgE Binding (printed over relative expression level) [2] [OD 650 nm] | OD at 650 nm (IgE Binding) [3] [OD 650 nm] | OD of IgE Binding (printed over relative expression level) [4] [OD 650 nm]
1 | H74-1 caninized heavy chain with 15A2 chimeric light chain Lx (antibody, part only; not given: constant regions, V domains shown, part only) VH: EVQLVQSAAEVKKPGASVKVSCKTSGYSFTDYFMNWVQQAPGAGLDWMGRINPFNGDPFYNQKFKGRVTLTADTSTSTAYMELSSLRAEDAAVYYCARFYYGRYYAMDYWGQGTLVTV | 13 | 1.3 | 1.3 | 
2 | H74-1 / Group 2-1 (CDR-grafted caninized 15A2, heavy and light) (antibody, part only; not given: constant regions, V domains shown, part only) VH: EVQLVQSAAEVKKPGASVKVSCKTSGYSFTDYFMNWVQQAPGAGLDWMGRINPFNGDPFYNQKFKGRVTLTADTSTSTAYMELSSLRAEDAAVYYCARFYYGRYYAMDYWGQGTLVTV |  |  |  | 0
